The source of these data is publication PMC8177486.

The target of the assay is KEAP1_(312–624), human KEAP1 Kelch repeat domain (human) (UniProt Q14145). The assay is described as follows: fluorescence polarisation.

B1: Nrf2_(1–100) (domain or fragment)
chain: MMDLELPPPGLPSQQDMDLIDILWRQDIDLGVSREVFDFSQRRKEYELEKQKKLEKERQEQLQKEQEKAFFAQLQLDEETGEFLPIQPAQHIQSETSGSA
In the case of B1, the equilibrium dissociation constant (Kd) (in general, the constant that tells how readily two partners part at equilibrium) was 10 nM.

B2: Nrf2_(34–100) E82A (domain or fragment)
chain: REVFDFSQRRKEYELEKQKKLEKERQEQLQKEQEKAFFAQLQLDEETGAFLPIQPAQHIQSETSGSA
Consider B2, for which the equilibrium dissociation constant (Kd) is 22000 nM. This Kd is about 2200-fold higher than that of the molecule before.

B3: Nrf2_(34–100) E79A (domain or fragment)
chain: REVFDFSQRRKEYELEKQKKLEKERQEQLQKEQEKAFFAQLQLDEATGEFLPIQPAQHIQSETSGSA
Take B3: the Kd was 1700 nM.

B4: Nrf2_(34–100) T80S (domain or fragment)
chain: REVFDFSQRRKEYELEKQKKLEKERQEQLQKEQEKAFFAQLQLDEESGEFLPIQPAQHIQSETSGSA
Turning to B4, the KD ratio to wild type (KD^T80S/KD^WT) is 30.

B5: Nrf2_(34–100) D77A (domain or fragment)
chain: REVFDFSQRRKEYELEKQKKLEKERQEQLQKEQEKAFFAQLQLAEETGEFLPIQPAQHIQSETSGSA
B5 displayed a Kd of 4400 nM.

B6: Nrf2_(34–100) wild type (domain or fragment)
chain: REVFDFSQRRKEYELEKQKKLEKERQEQLQKEQEKAFFAQLQLDEETGEFLPIQPAQHIQSETSGSA
Consider B6, for which the dissociation constant (Kd) is 10 nM. Compared with the last molecule, the Kd is about 440-fold lower.

B7: Nrf2_(34–100) F83A (domain or fragment)
chain: REVFDFSQRRKEYELEKQKKLEKERQEQLQKEQEKAFFAQLQLDEETGEALPIQPAQHIQSETSGSA
B7 showed a dissociation constant Kd of 18 nM.

B8: Nrf2_(34–100) T80A (domain or fragment)
chain: REVFDFSQRRKEYELEKQKKLEKERQEQLQKEQEKAFFAQLQLDEEAGEFLPIQPAQHIQSETSGSA
B8 displayed an equilibrium dissociation constant (Kd) of 26000 nM.

B9: Nrf2_(34–100) E78A (domain or fragment)
chain: REVFDFSQRRKEYELEKQKKLEKERQEQLQKEQEKAFFAQLQLDAETGEFLPIQPAQHIQSETSGSA
Turning to B9, the dissociation constant (Kd) amounted to 25 nM.
